Values quoted from earlier work as cited in patent US20260048144A1, “SECRETED RNA THERAPEUTICS FOR NUCLEAR DELIVERY” (H. Lee Moffitt Cancer Center and Research Institute, Inc., priority 2022, published 2026).

Columns and labels:
[1] = infused in thousands of lymphoma and rheumatoid arthritis patients
[2] = tested in humans; Di Stasi et al. 2011

For Rituximab, the side effect profile [1] is given as “favorable side effect profile”.

For `CC[C@H](C(=O)N1CCCC[C@H]1C(=O)O[C@H](CCc1ccc(OC)c(OC)c1)c1cccc(OCC(=O)NCCNC(=O)COc2cccc([C@@H](CCc3ccc(OC)c(OC)c3)OC(=O)[C@@H]3CCCCN3C(=O)[C@@H](CC)c3cc(OC)c(OC)c(OC)c3)c2)c1)c1cc(OC)c(OC)c(OC)c1` [AP1903], the “safety / adverse effects in humans” value [2] is listed as “deemed safe without adverse effects”.
